Measured values from article PMC11743104, “Potent human antibodies against SpA5 identified by high-throughput single-cell sequencing of phase I clinical volunteers’ B cells” (iScience, 2024).

Key:
[1] = target: T1, S. aureus protein A in MRSA252 bacterial fluid (Staphylococcus aureus MRSA252 (stand-in …, UniProt P02976, strain)); test: affinity purification with mass spectrometry; supernatant of ultrasonically fragmented MRSA252 incubated overnight with Abs-9 (200 uL, 8 mg/mL), bound to Protein A beads 2 h, eluate to mass spectrometry; settings: one partner purified
T1 construct: staphylococcal protein A as it is present in strain MRSA252; The lysate of MRSA252 can hold only the native protein A, not the recombinant mutant SpA5; also called SpA; source: endogenous, MRSA252 ultrasonically fragmented and centrifuged, supernatant

[2] = target: T2, mutant staphylococcal protein A (SpA5) (Staphylococcus aureus, recombinant …, point mutant); test: BLI; Octet RED96, room temperature, PBS with 0.01% Tween 20; Abs-9 (8 ug/mL) loaded on Pro A biosensor; SpA5 in double dilutions 53 uM to 6.63 uM, 600 s association, 600 s dissociation; settings: both partners purified
T2 construct: staphylococcal protein A, mutant 'pentameric form' (SpA5), component of the recombinant five-component S. aureus vaccine; The residue numbers printed for SpA5 (E790 to N893) come from the docked model; also called antigen SpA5; pentameric form of S. aureus protein A; source: recombinant antigenic protein (vaccine component of rFSAV)

[3] = target: T3, KLH-(N847-S857) (Staphylococcus aureus, protein A …); test: ELISA; KLH-(N847-S857) coated at 2 ug/mL; Abs-9 from 2 ug/mL in PBST, diluted in half; 37 C 1 h; goat anti-human IgG Fc-HRP, OD450; SpA5 positive control, KLH negative control; settings: both partners purified
T3 construct: stretch N847-S857 of SpA5; they were put together from the eleven consecutive residues in the docking list; also called synthetic peptide N847-S857; source: synthetic peptide, coupled to keyhole limpet hemocyanin (KLH)
T3 chain: NEEQRNGFIQS

B1: human antibody Abs-9 (antibody, V domains shown)
VH: QVQLQQWGAGLLKPSETLSLTCAVYGGSFSGYYWSWIRQPPGKGLEWIGEINHSGSTNYNPSLKSRVTISVDTSKNQFSLKLSSVTAADTAVYYCARRSYGVKPFDYWGQGTLVTVSS
VL: SSELTQDPAVSVALGQTVRITCQGDSLRTYYASWYQQKPGQAPALVIYGKNNRPSGIPDRFFGSSSGNTASLTITGAQAEDEADYYCNSRDSSGNHHPVFGGGTKLTVL
notes: germline VH3-48 gene; also called IgG-9; source: 293F cells, transfected (heavy and light chain plasmids, PEI), purified from supernatant on Protein A beads
[1]
  binding result: binds
[2]
  Kd: 1.96 nM
  koff: 5.63e-07 s⁻¹
[3]
  binding result: binds
